Results as given in article doi:10.1101/2024.08.29.610268.

Biological target: NELF complex WT (NELF-A/B/D/E) (human, UniProt Q9H3P2;Q8WX92;Q8IXH7;P18615 1-528;1-628;1-590;1-380)
Test: fluorescence anisotropy

B1: HIV-1 TAR stem loop (structured_RNA)
RNA: CCAGAUCUGAGCCUGGGAGCUCUCUGG
binding result: binds
